Primed or numbered codes have the meaning given here. Ends that are not written are not given here. 5FAM′ = 5-carboxyfluorescein
T1: human S100A5 (human, UniProt P33763 1-92)
T1 sequence: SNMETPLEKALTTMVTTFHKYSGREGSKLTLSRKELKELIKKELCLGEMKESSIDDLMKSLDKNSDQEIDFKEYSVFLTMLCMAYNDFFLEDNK

B1: probe peptide 5FAM-GFDWRWGMEALTGGGSAE (peptide)
peptide: {5FAM′}-GFDWRWGMEALTGGGSAE
notes: also called fluorescently labeled probe peptide; source: synthetic peptide, bought: Genscript (95% purity)
B2: peptide SRQTTSTHEWVVGGGSAE (peptide)
chain: SRQTTSTHEWVVGGGSAE
modifications: synthetic unlabelled peptide with free N-terminus; C-terminal state not printed. The Methods print the full 18-mer (12-mer + GGGSAE flank, matching the stated library design); the Results form with …
B3: unlabeled probe peptide GFDWRWGMEALTGGGSAE (peptide)
peptide: GFDWRWGMEALTGGGSAE
notes: the methods name only the nine test peptides and the probe as ordered from Genscript

Columns and labels:
human S100A6 = human S100A6 (human, UniProt P06703 1-90); assay: fluorescence polarisation; displacement of the 5FAM probe peptide by increasing unlabeled peptide; 2.4-4.2 µM protein (monomer) with probe at the same concentration; 50 mM TES, 100 mM NaCl, 0.01% Tween-20, pH 7.4; KD,apparent corrected for the probe; details: both partners purified
human S100A5 = target: T1, human S100A5; assay: as above; details: both partners purified

Binder	binding result (human S100A6)	binding result (human S100A5)	Kd (human S100A5) [µM]	Kd (human S100A6) [µM]
B1	binds	binds	–	–
B2	–	–	> 1000	–
B3	–	–	2.6 ± 2	12.4 ± 2

Reference: paper PMC8136485, “Were Ancestral Proteins Less Specific?” (Molecular Biology and Evolution, 2021)
